In publication PMC3682517:

Target: GST-AKAP79
Experiment: phage display recovery; RII phage recovered by GST-AKAP79 compared with GST alone; pilot study (supplemental Fig. S1B)

Chain of RII phage: PKA RIIα (residues 1–45) displayed on the T7 capsid protein (P13861 2-404): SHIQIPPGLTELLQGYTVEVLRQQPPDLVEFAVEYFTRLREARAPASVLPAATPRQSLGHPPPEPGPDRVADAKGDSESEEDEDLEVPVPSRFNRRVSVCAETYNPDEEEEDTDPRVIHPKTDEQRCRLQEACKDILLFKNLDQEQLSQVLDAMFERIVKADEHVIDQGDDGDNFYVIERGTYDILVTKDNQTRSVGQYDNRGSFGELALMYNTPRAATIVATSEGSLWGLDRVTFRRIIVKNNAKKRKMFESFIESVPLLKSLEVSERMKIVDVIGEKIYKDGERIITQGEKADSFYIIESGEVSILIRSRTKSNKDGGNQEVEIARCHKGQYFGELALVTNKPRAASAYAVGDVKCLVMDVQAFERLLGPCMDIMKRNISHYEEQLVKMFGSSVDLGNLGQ
Chain of GST-AKAP79 (P24588 whole entry): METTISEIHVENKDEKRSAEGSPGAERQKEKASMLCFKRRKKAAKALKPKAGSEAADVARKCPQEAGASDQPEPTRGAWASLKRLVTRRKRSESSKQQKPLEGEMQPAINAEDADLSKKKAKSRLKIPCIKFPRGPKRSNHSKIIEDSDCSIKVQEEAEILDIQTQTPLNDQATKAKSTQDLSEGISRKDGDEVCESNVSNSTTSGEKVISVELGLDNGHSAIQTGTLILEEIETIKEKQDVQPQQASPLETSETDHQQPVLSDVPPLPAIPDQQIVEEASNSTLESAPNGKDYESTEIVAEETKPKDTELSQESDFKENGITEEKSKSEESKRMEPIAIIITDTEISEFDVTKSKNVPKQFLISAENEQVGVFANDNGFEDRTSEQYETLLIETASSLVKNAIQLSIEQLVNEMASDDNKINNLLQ

Work on “RII phage: PKA RIIα (residues 1–45) displayed on the T7 capsid protein (from UniProt P13861 1-45) (domain or fragment)” yielded a fold more phage recovered than with GST alone of 300 fold.
